Data as given in patent US20220062415A1, “Methods of Treating Multiple Myeloma” (Janssen Biotech, Inc., priority 2018, published 2022).
Where two headings read alike, the source gives them in different places.

How the values were obtained:
[1] = Pooled infusion-related reaction analysis, 1,166 subjects treated with daratumumab 16 mg/kg IV; type: in vivo, human
[2] = Phase 3 Study: daratumumab serum pharmacokinetics; type: in vivo, human; details: daratumumab 16 mg/kg in D-VMP
Source text: (§1) Clinical pharmacology information provided herein focuses on data from subjects with evaluable pharmacokinetic data treated with D-VMP in the Phase 3 Study (n=342), and supportive information derived from the Phase 1b Study in the cohort of subjects treated with D-VMP having evaluable pharmacokinetic data (n=11). In addition, an updated population pharmacokinetics (PPK) analysis including data from the Phase 3 and Phase 1b Studies and exposure-response (efficacy and safety) analyses including data from Phase 3 Study were conducted.

[3] = in vivo
Source text: The first subject in this cohort started treatment with D-VMP. Subjects in the D-VMP cohort of the Phase 1b Study received treatment for a maximum of 9 cycles. Long-term follow-up for this cohort continued until death, loss to follow up, withdrawal of consent, or study end, whichever occurred first. The primary objective for the Phase 1b Study was to evaluate safety and tolerability of the combination regimen. Efficacy assessments (primary efficacy endpoint, overall response rate (ORR)) were performed per International Myeloma Working Group (IMWG) guidelines (Kumar S, et al. Lancet Oncol. 2016;17(8):e328-e346, hereby incorporated by reference in its entirety), and a computerized, validated algorithm as described above was utilized for determining response based on IMWG criteria.
as §1

[4] = mean±SD, cited from earlier work
[5] = cited from earlier work
[6] = in vivo; remark: listed apart in the source

Substance: daratumumab
- Grade 4 IRRs ([1]; 2 of 1,166 subjects): 0.2%
- incidence of any grade IRR ([1]; first infusion, pooled 1,166 subjects): 40%
- incidence of infusion modification due to IRRs ([1]; pooled): 37%
- incidence of any grade IRR ([1]; second infusion, pooled): 2%
- subjects with a Grade 3 IRR ([1]; second or subsequent infusion, pooled): < 1%
- incidence of any grade IRR ([1]; subsequent infusions, pooled): 4%
- mean end-of-infusion concentration following the first dose [2]: 266.7 µg/mL
- mean end-of-infusion concentration following the first dose [3]: 332.2 µg/mL
- half-life ([4]; monotherapy study data): 18 ± 9 days
- half-life ([4]; previous combination therapy study data): 23.3 ± 11.8 days
- mean maximum trough concentration ([5]; after 8 weekly doses, monotherapy): 573.5 µg/mL
- mean end-of-infusion concentration following the first dose ([5]; daratumumab monotherapy, Phase 2 study): 312.5 µg/mL
- increase in daratumumab compared with the first dose ([5]; end of 8 weekly doses of monotherapy): 2.9 fold
- model-derived half-life associated with the CL ([6]; human): approximately 22.1±9.7 days
- estimated Vi value [6]: approached plasma volume
- time to apparent steady state [6]: approximately 5 months
